From patent publication US20070025968A1, “Methods for selecting and producing T cell peptide epitopes and vaccines incorporating said selected epitopes” (priority 1996, published 2007)

Experiments:
Conditions in all cases: remark: other sources report otherwise
[1] = target: HLA-A*0201 on mild-acid treated JY cells (human); test: competition vs FL-reference peptide, JY cells
[2] = target: HLA-A*0201 on mild-acid treated JY cells (human)
[3] = target: HLA-A*0201 on mild-acid treated JY cells (human); test: competition vs FL-reference peptide, JY cells, 4°C 24 hr
[4] = target: HLA-A*0201 on mild-acid treated JY cells (human); test: competition vs FL-reference peptide, JY cells, 26°C 3 hr
[5] = target: HLA-A*0201 on mild-acid treated JY cells (human); test: competition vs FL-reference peptide, JY cells, 26°C 24 hr

Binder | IC50 [1] | also measured
DLMGYIPLV [HCVcore-132] | 5 µM | –
PLEEELPRL [HBV Pol 594-602] | – | HLA molecules detectable after 2 hr at 37°C (NS = non stable) [2]: < 10%
FLPSDFFPSV [hepatitis B nucleocapsid peptide …] | 0.4 µM | –
WLSLLVPFV [HBV surface 335] | 1 µM | –
TLGIVCPI [HPV16 E7 86-93] | 0.7 µM | IC50 [3]: 0.7 µM; IC50 [4]: 6.5 µM; IC50 [5]: 3.1 µM
